Assay results as given in the RNAGym collection of RNA variant scans (doi:10.1073/pnas.2313332121).

B1: TPR t1 (parent)
chain: GACCAAUCUGCCCUCAGAGCUCGAGAACAUCUUCGGAUGCAGAGGAGGCAGGCUUCGGUGGCGCGAUAGCGCCAACGUCCUCAACCUCCAAUGCAUCCCACCACAUGAUGAUGCCUGAAGAGCCUUGGUUUUUUG

Variants of: B1
Test: polymerase ribozyme fitness, log enrichment relative to wild type (log ratio); higher = more active; in vitro selection for triplet polymerase activity
In short: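 A single round of triplicate in vitro selection, including frozen incubation at −7 °C, was applied to PCR-built, transcribed mutant libraries of each subunit of a heterodimeric triplet polymerase ribozyme. Illumina sequencing of input and output libraries retained genotypes with ≥10 input reads and ≥1 read per output. Fitness is the base-2 logarithm of genotype enrichment divided by wild-type enrichment, from inverse-variance-weighted replicate averages.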

Point of comparison: C88A U129A, “polymerase ribozyme fitness (log ratio)” value -2.21. Against it:
- A84U C102U — higher, -2
- C85G C115U — higher, -1.86
- U87C U109C U130C — lower, -5.36
- A83C U126A — higher, -1.84
- U87A G93C — higher, -1.3
- A84G G128C — lower, -3.48
- A83C A84C G128A U131A — higher, -2.01
- C85A U106A U125A — lower, -3.11
- C82G G107A — lower, -6.96
- U87G U96G C99U — lower, -2.81
- C85A U87G G120U — higher, -0.802
- A83C A111U U134G — within 0.2 log units, -2.14
- A83G A105G C115U — lower, -2.83
- C88A U130A — within 0.2 log units, -2.14
- C88A U130G — higher, -1.33
- C86A U106A — higher, 0.119
- C85U G113A G120U — lower, -2.7
- C86U C104U — higher, -0.296
- C86G C101U — higher, -0.616
- C85A C88U — lower, -2.64
- C82G U129G — higher, -1.36
- C82U G113A — higher, -1.1
- A83U A95G C104G A105C C115A G117U — lower, -5.76
- A83C A100U G120A U130C — lower, -3.75
- C82G U130A — higher, -1.07
- C88A G107U — lower, -4.63
- U87C U129C — higher, -0.143
- C82U A111G — higher, -0.268
- A84U G93C — higher, -1.39
- C82U G128A — within 0.2 log units, -2.32
- C82U G128C — within 0.2 log units, -2.07
- C85A C99U G113A — lower, -4.82
- A83G G120U G122U — higher, -0.467
- U87A C88G — higher, -1.1
- C88A G113A — higher, -1.6
- C85G U96G A105U — lower, -4.68
- A84U C102A A103G U109G C114U — lower, -3.45
- C88A C101G U116C — lower, -2.59
- U87A G127U — higher, -0.745
- C82U A83G C101U — higher, -0.587
- A84C C94A — higher, -1.23
- C85A G110A — lower, -2.98
- C86A U129A — within 0.2 log units, -2.31
- C85A A111U — lower, -4.18
- U87C G113A U133A — higher, -0.981
- C86U G93A — higher, -0.143
- A83C C115A — higher, 0.0144
- C85G G113U — lower, -4.31
- A83C A95U U116C — higher, -1.65
- C85G C86U U92A — lower, -5.3
- A83C G93A A111C G113U — lower, -4.96
- A84U U112A — higher, 0.956
- C86A A95C — within 0.2 log units, -2.08
- A84U U112A G128U — higher, -1.28
- A84U U92G — lower, -3.25
- C85U C89G — higher, -1.76
- C86U U116C — higher, -0.139
- C82G C86A C94G — lower, -3.45
- C85G U112A — higher, 0.357
- U87A C102A — within 0.2 log units, -2.11
- C86A C124G G128A — higher, 0.914
- C88G A111C — higher, 0.0984
- A83U C85U C123G C124G — higher, 1.28
- A83C G93A G117U — lower, -2.52
- C82G A95U A105G — lower, -3.5
- C86A A100C — higher, -1.66
- A83C C114U — higher, -1.78
- C88A U112A — higher, -0.232
- A83C C94U G128A — within 0.2 log units, -2.4
- C85U A111U G122U — lower, -4.09
- C82G C86A — higher, -0.475
- C85U U87A C89U — lower, -2.94
- U87A U92A — lower, -2.55
- U87G G110A — higher, -0.698
- U87G G110U — higher, -0.69
- A83C U106A C123U — higher, 1.46
- A84U C114U U126G — lower, -6.08
- U87A G113C U130A — lower, -2.96
- U87C C104U — higher, 0.232
- U87A A108G C114A U116A — lower, -7.38
- C82U U133A — higher, -0.572
- C88A U125G — higher, -1.18
- C82G C98G U109A C123G — lower, -7.59
- A83C G117A — higher, -1.33
- C86A G107U A121U U132C — lower, -3.32
- A84U U132C — higher, -0.244
- C86G C98U — higher, -1.59
- C86U C98U G117C — lower, -5.99
- A83G G127C — higher, -1.88
- C82G C102A U112A G120C U125G — lower, -4.33
- C85A G113U — lower, -3.47
- C85A C97A — lower, -7.29
- C88G G110U — lower, -2.67
- U87C A90G U96A — higher, 0.000334
- C85G C123U — higher, -0.244
- A84G C85A G127U — lower, -5.16
- A83C G128C — within 0.2 log units, -2.09
- A83U A91U U92G A111C U130C — lower, -3.89
- C88A A121U — higher, 0.835
- C86G U112C — higher, -1.94
- C82U C88A A100U U112C — higher, 0.47
- A83U U132C — higher, -0.0917
- C85U C94G C104U — higher, -1.9
- C85A U106A — lower, -2.53
- C88A A111C — higher, 0.245
- U87A U92G G93U C104A A111G C114U U130C — lower, -7.15
- A83G C85A — lower, -2.68
- A83C G107C — within 0.2 log units, -2.05
- C85G U112A C115U — lower, -2.5
- U87A C94A — higher, -0.438
- U87A G117C — lower, -3.81
- U87A G128U — within 0.2 log units, -2.2
- A84U C88G C115U U126A — lower, -3.84
- C88G C115G — lower, -3.51
- C82G C97U — higher, -1.16
- A83U A91C — higher, -0.743
- C85G G120A — higher, -1.01
- C86A C104A G120C U130A — higher, -1.56
- C88A U129G — higher, -1.51
- C85A G128U — lower, -4.02
- A84U C101G U125G — lower, -2.42
- A84G C102A — lower, -3.38
- C86A U87A — lower, -2.7
- A83G C86G A91C C94U U130A — lower, -3.59
- A84C G93A C101U — higher, -1.17
- U87A C89A A91C A95G G113C — lower, -2.9
- C86G C97U C115G — lower, -4.24
- C82G U106A — higher, -0.594
- A83C U112G — higher, -1.81
- A84U G135U — higher, -1.03
- C82U C85A A121U — higher, 0.305
- C82U U134G — higher, 0.46
- C86G C102A — lower, -3.09
- C82U U96C C98U C115A G117C — lower, -6.13
- A84C U96C — higher, -0.0472
- C85U C114U — lower, -3.18
- C86A G117U — lower, -4.28
- C88A C98A C124G — lower, -3.46
- A84G A95U C104A A121C — within 0.2 log units, -2.33
- A84G G93U G120U — within 0.2 log units, -2.23
- C86G G120C — higher, 0.661
- C88A C114U — lower, -2.51
- A83U A100C C114U — lower, -3.1
- C85U U92C G127U G128A — lower, -6.04
- C85G C89U G110U — within 0.2 log units, -2.09
- C82U C86U G110A U133C — higher, -0.604
- C85G C88A C101U C124U — higher, -0.871
- C85G U112A U126A — higher, -1.28
- A83G U92C C94A — lower, -4.59
- C82G G110C — lower, -4.38
- C86U U92C C115A C124A G127A — higher, -1.31
- A83U G120U — higher, -1.06
- A83U A108U — lower, -5.5
- C88A G122A — higher, -1.31
- C88A A100U C115U — lower, -3.24
- A83C A119G — higher, -0.249
- A83G U129G — higher, -1.68
- C82G A119G — higher, 0.749
- C82G A119U — higher, -0.606
- A83G C114A — lower, -3.07
- A83C C101U — higher, 0.114
- A84U U96A C99G C114A — lower, -6.17
- U87A A105G — higher, -2
- A84G G117U — lower, -3.75
- A83C U109C — lower, -4.51
- C86U C115G — higher, -1.57
